Ends that are not written are not given here.
Columns and labels:
[1] = target: T1, hIL20 peptide 4 (residues 48-67 of SEQ ID NO. 1) (N-terminal biotin); assay: SPR, biotinylated peptide on streptavidin chip (500 RU), antibody injected
T1 peptide: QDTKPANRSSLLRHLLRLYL

[2] = target: T2, hIL20 peptide 2 (residues 28-47 of SEQ ID NO: 1) (N-terminal biotin); assay: as above
T2 peptide: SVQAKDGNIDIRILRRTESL

[3] = target: T3, hIL20 peptide 5 (residues 58-78 of SEQ ID NO: 1) (N-terminal biotin); assay: as above
T3 peptide: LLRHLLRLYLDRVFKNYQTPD

[4] = target: T4, hIL20 peptide 1 (residues 18-37 of SEQ ID NO: 1) (N-terminal biotin); assay: as above
T4 peptide: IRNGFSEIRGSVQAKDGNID

[5] = target: T5, hIL20 peptide 3 (residues 38-57 of SEQ ID NO. 1) (N-terminal biotin); assay: as above
T5 peptide: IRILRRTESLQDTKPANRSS

[6] = target: T6, Peptide no. 13 (Figures 7A, 7B) (N-terminus acylated); assay: array of terminally truncated, acylated hIL20 peptides on cellulose; fluorescein-labelled antibody; fluorescence as OD
T6 construct: peptide array on cellulose
T6 peptide: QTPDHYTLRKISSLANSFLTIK

[7] = target: T7, Peptide no. 14 (Figures 7A, 7B) (N-terminus acylated); assay: as above
T7 construct: peptide array on cellulose
T7 peptide: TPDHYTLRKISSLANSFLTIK

[8] = target: T8, Peptide no. 5 (Figures 7A, 7B) (also: N-terminus acylated); assay: as above
T8 construct: peptide array on cellulose
T8 peptide: YQTPDHYTLRKISSLANSF

[9] = target: T9, Peptide no. 16 (Figures 7A, 7B) (also: N-terminus acylated); assay: as above
T9 construct: peptide array on cellulose
T9 peptide: DHYTLRKISSLANSFLTIK

[10] = target: T10, Peptide no. 15 (Figures 7A, 7B) (N-terminus acylated); assay: as above
T10 construct: peptide array on cellulose
T10 peptide: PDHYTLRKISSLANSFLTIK

[11] = target: T11, Peptide no. 4 (Figures 7A, 7B) (N-terminus acylated); assay: as above
T11 construct: peptide array on cellulose
T11 peptide: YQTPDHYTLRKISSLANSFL

[12] = target: T12, Peptide no. 1 (Figures 7A, 7B) (N-terminus acylated); assay: as above
T12 construct: peptide array on cellulose
T12 peptide: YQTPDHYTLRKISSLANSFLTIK

[13] = target: T13, Peptide no. 17 (Figures 7A, 7B) (also: N-terminus acylated); assay: as above
T13 construct: peptide array on cellulose
T13 peptide: HYTLRKISSLANSFLTIK

[14] = target: T14, Peptide no. 87 (Figure 6A); assay: 18mer hIL20 peptide array on cellulose, 4 residue walk; fluorescein-labelled antibody; fluorescence as OD
T14 construct: also called Peptide no
T14 peptide: PDHYTLRKISSLANSFLT

[15] = target: T15, Peptide no. 86 (Figure 6A); assay: as above
T15 construct: also called Peptide no
T15 peptide: NYQTPDHYTLRKISSLAN

binding result [1]: no binding (tested: 5 µg/ml)
binding result [2]: no binding (tested: 5 µg/ml)
binding result [3]: no binding (tested: 5 µg/ml)
binding result [4]: no binding (tested: 5 µg/ml)
binding result [5]: no binding (tested: 5 µg/ml)
binding result [6]: binds
binding result [7]: binds
binding result [8]: binds
binding result [9]: binds
binding result [10]: binds
binding result [11]: binds
binding result [12]: binds
binding result [13]: binds
binding result [14]: binds
binding result [15]: binds
B1: human anti-hIL20 monoclonal antibody 15D2 (antibody, V domains shown)
VH: QVQLVQSGAEVKRPGASVKVSCKASGYTFTNDIIHWVRQAPGQRLEWMGWINAGYGNTQYSQNFQDRVSITRDTSASTAYMELISLRSEDTAVYYCAREPLWFGESSPHDYYGMDVWGQGTTVTVSS
VL: AIQLTQSPSSLSASVGDRVTITCRASQGISSALAWYQQKPGKAPKLLIYDASSLESGVPSRFSGSGSGTDFTLTISSLQPEDFATYYCQQFNSYPLTFGGGTKVEIKR
notes: also called 15D2-wt; 15D2 wild-type

From patent publication US20130039923A1 (Novo Nordisk, published 2013)
